Test results reported in patent US20140072980A1.

Assays:
[1] = molecular target: IgG1 Fc/Fc* bispecific antibody; experiment: flow cytometry: antibody displayed on CHO cells by CSCP FcγR, detected with Anti-hFc
[2] = molecular target: IgG1 Fc/Fc monospecific antibody; experiment: as above

- Mean Fluorescence Intensity (MFI) [1]: 1800 MFI
- Mean Fluorescence Intensity (MFI) [2]: 1000 MFI
Substance: human FcγRI (from UniProt P12314 16-374) (receptor)
